Test results taken from patent CN106084046A (UNIV SUN YAT SEN, dated 2016).

Columns and labels:
[1] = molecular target: CD3 on Jurkat靶标细胞 (human) (UniProt P07766); assay: flow cytometry, culture supernatant of the negative control sdAb on Jurkat cells (TG1 background supernatant: 132.03)
[2] = molecular target: CD3 on Jurkat靶标细胞 (human) (UniProt P07766); assay: flow cytometry, culture supernatant on Jurkat cells
CD3-His蛋白(MP-5) = molecular target: T1, CD3-His蛋白(MP-5) (human, UniProt P07766 23-126); assay: BLI (Octet RED96) off-rate screen, sdAb-SASA from expression medium captured on BSA-coated biosensor, 100 nM CD3 in solution, 30°C, 1:1 Langmuir model
T1 construct: Immunogen and panning antigen; also called CD3蛋白; not shown: His tag
T1 sequence (P07766 23-126): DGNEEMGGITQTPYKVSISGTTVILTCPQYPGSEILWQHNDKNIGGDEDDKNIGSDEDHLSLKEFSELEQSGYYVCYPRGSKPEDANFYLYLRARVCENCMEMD

Molecule | MFI [1] | MFI [2] | koff (CD3-His蛋白(MP-5))
NC-sdAb(相同形式的非相关性sdAb) (VHH) | 115 MFI | – | –
抗CD3单域抗体 A30249 (VHH, Llama sdAb from a phage display library; Tested as sdAb-SASA protein in crude expression medium / culture supernatant, not purified; also called sdAb; sdAb-SASA; not shown: SASA fusion partner from the pFASEBA vector (sdAb-SASA protein in expression medium)) VHH: QVKLEESGGGLVQAGGSLRVSCTASGRTFDTMGWFRQAPGKEREFVAAVRWSSGNTLYGNTVKGRFTISRDTATNTVYLQMSSLKHEDTAVYYCAARVGGRGAADHWGQGTQVTVSS | – | 217 MFI | 4.92e-05 s⁻¹
